In US20260035459A1, “HUMANIZED CHIMERIC ANTIGEN RECEPTORS TARGETING THE B-CELL RECEPTOR OF CHRONIC LYMPHOCYTIC LEUKEMIA AND USES THEREOF” (AVA LIFESCIENCE GMBH, priority 2022, published 2026):

Columns and labels:
[1] = target: T1, IGHV3-21/IGLV3-21^R110 BCR (Homo sapiens, UniProt P80748); experiment: FACS binding assay on BCR-expressing TKO cells; details: fluorescently labeled anti-mouse IgG
T1 construct: a complete light chain (LC) DNA covering IGLV3-21^R110 were synthesized; expressed in transfected cells; host or cells: murine triple knockout (TKO) pro-/pre-B cells, retroviral spinfection
From the text: (§1) The screening for positive clones was not performed by enzyme linked immunosorbent assay (ELISA) as usual. Since the target structure is a membrane-bound receptor, it is of central importance to validate the binding of the potential antibodies in a cellular system, i.e. while largely preserving the cell physiological states native to this cell type. First, groups of pooled supernatants were examined for binding events using fluorescence activated cell sorting (FACS) analysis. For this purpose different BCR variants were expressed on the surface of a triple knockout (TKO) cell line, which cannot express BCR itself.
(§2) For reconstitution with a ‘BCR of interest’, the corresponding sequence coding for the VH was fused with a human IgM constant segment by polymerase chain reaction (PCR), and heavy (HC) and light (LC) chains were cloned into respective expression vectors each having a CMV promoter. These were introduced into the packaging cell line (Phoenix cell line) by lipofection. After 36 hours of incubation, the virus supernatant was removed and used for spinfection of the TKO cells. BCR expression was determined using anti-IgM and anti-LC antibodies on FACS. For this purpose, some cells were taken and stained with 5 μl antibody each in a total volume of 100 μl in PBS. Both the work to extract the supernatants and the spinfection of the TKO are widely known procedures and known to experts. […]

[2] = tested on: wild-type IGLV3-21G110-variant; experiment: FACS binding assay on BCR-expressing TKO cells (germline control); design: species or system human; details: fluorescently labeled anti-mouse IgG
From the text: as §1, §2

[3] = tested on: OCI-LY1 R110 cell line (OCIR110); experiment: In-vitro cytotoxicity assay (IncuCyte Caspase-3/7), OCI-LY1 R110; type: cell-based, human; details: construct 1: IgG4 hinge spacer; construct 2: additional CH2-CH3 spacer
Method: Neoepitope (i.e. cancer-specific peptide) engineered cell line OCI-LY1 R110 expressing the IGLV3-21^R110 light chain as part of a BCR with induced R110 point mutation was generated from OCI-LY1 wt cells. First, OCI-LY1 wt cells were cultivated in RPMI 1640 Medium, GlutaMAX™ Supplement (Thermo Fisher, Cat. 61870044) supplemented with 20% (v/v) FBS (Life Technologies, Cat. 10500064) and 1% (v/v) penicillin-streptomycin (10,000 U/mL) (Thermo Fisher, Cat. 15140122) at 37° C. in a humidified atmosphere including 5% CO2. […]
Target cells seeded at 2×10^4 cells/well in a 96-well plate were co-incubated with effector cells at effector-to-target (E: T) ratio 5:1 in complete CTL medium consisting of RPMI 1640 Medium GlutaMAX™ Supplement (Thermo Fisher, Cat. 61870044) supplemented with 10% (v/v) FBS (Life Technologies, Cat. 10500064), 1% (v/v) penicillin-streptomycin (10,000 U/mL) (Thermo Fisher, Cat. 15140122), 50 μM β-mercaptoethanol (Thermo Fisher, Cat. 31350010) and 50 U/mL IL-2 (StemCell, Cat. 78036.1). CAR T cell mediated tumor cell killing was assessed using the IncuCyte@ Caspase-3/7 Green Reagent for Apoptosis (Sartorius, Cat. 4440) according to the manufacturer's instructions. Read out of dead (-green-fluorescent) target cells was performed on an
IncuCyte@ S3 (Sartorius) after 2 to 16 hours or 4 to 36 hours. The killing graphs were calculated by the IncuCyte@ software (version 2022A). […]

T1 sequence (P80748 with tags, fused parts or gaps V22E/Q35K/G42A/V66I/D68Y/S112G): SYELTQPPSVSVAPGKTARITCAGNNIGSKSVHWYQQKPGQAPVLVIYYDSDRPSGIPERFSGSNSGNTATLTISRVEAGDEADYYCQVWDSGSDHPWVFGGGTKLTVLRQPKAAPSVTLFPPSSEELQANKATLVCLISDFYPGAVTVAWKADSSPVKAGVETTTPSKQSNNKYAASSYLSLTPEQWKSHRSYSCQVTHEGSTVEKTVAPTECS
Chain of wild-type IGLV3-21G110-variant (as listed by the source): as the sequence (P80748 with tags, fused parts or gaps V22E/Q35K/G42A/V66I/D68Y/S112G) above, with R110G counted along it
Chain of wild-type IGLV3-21G110-variant (P01871 with tags, fused parts or gaps partner): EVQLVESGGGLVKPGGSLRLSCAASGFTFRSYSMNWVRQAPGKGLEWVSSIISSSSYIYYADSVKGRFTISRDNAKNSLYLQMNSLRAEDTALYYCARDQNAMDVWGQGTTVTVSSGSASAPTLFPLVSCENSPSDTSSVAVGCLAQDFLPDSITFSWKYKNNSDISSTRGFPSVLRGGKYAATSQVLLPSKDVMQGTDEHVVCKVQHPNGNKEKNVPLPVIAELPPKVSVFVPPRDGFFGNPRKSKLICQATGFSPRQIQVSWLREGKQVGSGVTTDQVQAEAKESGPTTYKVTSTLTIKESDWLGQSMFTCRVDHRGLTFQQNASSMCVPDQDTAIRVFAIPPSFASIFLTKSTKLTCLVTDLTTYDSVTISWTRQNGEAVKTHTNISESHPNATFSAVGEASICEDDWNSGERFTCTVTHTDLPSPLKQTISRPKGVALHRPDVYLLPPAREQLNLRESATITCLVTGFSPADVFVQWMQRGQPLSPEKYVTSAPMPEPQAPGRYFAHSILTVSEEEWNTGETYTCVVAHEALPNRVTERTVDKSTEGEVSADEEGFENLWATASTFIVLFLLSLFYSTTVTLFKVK
Chain of wild-type IGLV3-21G110-variant (P11911 29-220 partner): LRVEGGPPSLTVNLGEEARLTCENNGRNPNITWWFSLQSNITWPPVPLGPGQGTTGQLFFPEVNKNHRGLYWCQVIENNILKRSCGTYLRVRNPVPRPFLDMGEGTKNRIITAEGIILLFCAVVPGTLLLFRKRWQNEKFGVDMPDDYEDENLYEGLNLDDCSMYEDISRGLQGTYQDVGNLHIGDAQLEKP
Chain of wild-type IGLV3-21G110-variant (P15530 26-228 partner): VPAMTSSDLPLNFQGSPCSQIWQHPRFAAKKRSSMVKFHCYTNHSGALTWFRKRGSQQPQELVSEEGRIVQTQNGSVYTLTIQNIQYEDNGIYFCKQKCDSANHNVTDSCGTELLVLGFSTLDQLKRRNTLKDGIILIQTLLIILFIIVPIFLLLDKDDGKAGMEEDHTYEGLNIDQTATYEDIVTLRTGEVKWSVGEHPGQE

binding to IGLV3-21^R110-BCRs [1] | Molecule | binding to wild-type IGLV3-21G110-variant [2] | killing capacity, CAR construct 1 versus CAR construct 2 [3]
high specificity and cross-reactivity | mAb01-01: murine monoclonal anti-IGLV3-21^R110 antibody, VL SEQ ID NO: 44, VH SEQ ID NO: 45 (antibody, listed as Mus musculus, V domains shown) VH: QVQLQQSGPGLVQPSQSLSITCTVSGFSLTSYGIHWVRQSPGKGLEWLGVIWRGGGTDSNAAFMSRLSITKDNSKSQVFFKMNSLQADDTAIYYCARSRYDEEESMNYWGQGTSVTVSS VL: QIVLTQSPASLSASVGETVTITCRASGNIHSYLAWYQQKQGKSPQLLVYNAKTLADGVPSRFSGSGSGTQYSLKINSLQPEDFGSYYCQHFWNTPPTFGAGTKLELK | without any detectable binding | 
 | H1: humanized anti-IGLV3-21^R110 CAR, VL SEQ ID NO: 7, VH SEQ ID NO: 11, scFv SEQ ID NO: 13 (protein) scFv: EIVLTQSPSSLSASVGDSVTITCRASGNIHSYLAWYQQKPGKAPKLLIYNAKTLADGVPSRFSGSGSGTQYTLTISSLQPEDFATYYCQHFWNTPPTFGAGTKLELKGGGGSGGGGSGGGGSGGGGSQVQLQESGPGLVKPSETLSLTCTVSGFSLTSYGIHWIRQSPGRGLEWIGVIWRGGGTDSNAAFMSRVTISVDTSKSQVSLKLGSVTAADTAIYYCARSRYDEEESMNYWGQGTSVTVSS |  | remarkably higher in CAR construct 1 than in CAR construct 2
 | H2: humanized anti-IGLV3-21^R110 CAR, VL SEQ ID NO: 7, VH SEQ ID NO: 12, scFv SEQ ID NO: 14 (protein) scFv: EIVLTQSPSSLSASVGDSVTITCRASGNIHSYLAWYQQKPGKAPKLLIYNAKTLADGVPSRFSGSGSGTQYTLTISSLQPEDFATYYCQHFWNTPPTFGAGTKLELKGGGGSGGGGSGGGGSGGGGSQVQLQESGPGLVKPSETLSLTCTVSGFSLTSYGIHWIRQSPGRGLEWIGVIWRGGGTDSNAAFMSRITISRDTSKTQVSLKLGSVTAADTAIYYCARSRYDEEESMNYWGQGTSVTVSS |  | remarkably higher in CAR construct 1 than in CAR construct 2
